Measurements taken from patent publication US20210253725A1 (BIONTECH, published 2021).

T1: CD27 expressed on the cell surface of HT1080_CD27 cells (human, UniProt P26842 20-260)
T1 sequence (looked up): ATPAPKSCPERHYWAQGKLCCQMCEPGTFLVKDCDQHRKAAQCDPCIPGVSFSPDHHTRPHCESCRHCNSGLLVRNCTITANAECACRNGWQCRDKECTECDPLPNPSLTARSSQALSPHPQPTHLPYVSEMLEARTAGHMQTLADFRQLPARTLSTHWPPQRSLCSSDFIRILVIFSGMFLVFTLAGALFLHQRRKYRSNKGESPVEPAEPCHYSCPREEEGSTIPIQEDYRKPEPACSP


The binders below were run against T1, CD27 expressed on the cell surface of … (assay: cell-based or functional assay).

Row | Binder | EC 50 (IL-8 release, cross-linked)
1 | P018.S.01.A.F05 (antibody, V domains shown) VH: QEQLEESGGDLVKPEGSLTLTCTASGFSFSSSYWICWVRQAPGKGLEWIGCIITGRGNTYYANWAKGRFTISKTSSTTVTLQMTSLTAADTAIYSCARGPGGADPVNLWGPGTLVTVSS VL: DVVMTQTPASVSEPVGGTVTIKCQASQSIYSNLAWYQQKPGQPPKLLIYRASTLTSGVPSRFKGSGSGTQFTLTISDLESADAATYYCQCTYDGSSYVPNAFGGGTEVVVK | 1.32 µg/mL
2 | P018.S.09.A.C03 (antibody, V domains shown) VH: QSVEESGGRLVTPGTPLTLTCTVSGFSLSSYGMIWVRQAPGKGLEWIGWISSNDNKYYARWAKGRFTISKTSTTVDLKMTSLTTEDTATYFCVRNGVYNTGNYFDLWGQGTLVTVSS VL: AQVLTQTPSSVSAAVGGTVTINCQASQSLYNNKNLAWYQQKPGQPPKFLIYTASSLASGVSSRFKGSGSGTQFTLTISDVQSDDAATYYCQGEFDCDSDDCFAFGGGTEVVVK | 1.02 µg/mL
3 | P018.S.09.A.E05 (antibody, V domains shown) VH: QSLEESGGRLVTPGTPLTLTCTVSGIDLSRYDMSWVRQAPGKGLEWIGFIGASGSTYYASWVKGRFTISKTSTTVDLKITSPTTEDTATYFCAREETDSRGYYYSLWGPGTPVTVSS VL: ALVMTQTPASVEAAVGGTVTINCQASQSISDLLGWYQQKPGQPPKLLIYDASDLASGVPSRFSGSGSGTEFTLTISGVQSDDAATYYCQQGYSINNVDNAFGGGTEVVVK | 0.502 µg/mL
4 | P018.S.01.A.D04 (antibody, V domains shown) VH: QEQLEESGGRLVTPGGTLTLTCTASGFSLSNYDMSWVRQAPGKGLEWIGYIWSDGNTDYASWAAGRFTASRASTTVDLKMTSLTTEDTATYFCARGYTGFFLWGPGTLVTVSS VL: DVVMTQTPSSVSTAVGDTVTIKCQASQSIGSSYLSWYQQKPGQPPKLLIYKTSTLASGVPSRFKGSGSGTEFTLTISDLESDDAATYYCQCTYYGGSWRVAFGGGTEVVVK | 1.3 µg/mL
5 | P018.S.10.A.C05 (antibody, V domains shown) VH: QSVEETGGRLVTPGTPLTLTCAASGVSLSGYYAMSWVRQAPGKGLEWIGYLDATGSTYYASWVKGRFIISRPSTTVDLQITSPTIEDTATYFCARGSYDGVGYNWGLWGQGTLVTVSS VL: DIVMTQTPASVSEPVGGTVTIKCQASESIYNGLAWYQQKPGQPPKRLIYGASTLTSGVPSRFKGSGSGTEFTLTISDLESDDAATYYCQSNYGSGSRSNYIFGGGTEVVVK | 0.34 µg/mL
6 | P018.S.06.A.A02 (antibody, V domains shown) VH: QEQLVESGGGLVQPEGSLTLTCTSSGFSLNSNYYISWVRQAPGKGLEWIACIDAGSGSTWYASWVKGRFTISKTSSTTVTLQMTSLTAADTATYFCARDDIGTSYEYYFGLWGPGTLVTVSS VL: DVVLTQTPASVSEPVGGTVTIKCQASQTISSYLAWYQQKSGQPPKLLIYSASTLASGVSSRFKGSGSGTEYTLTISDLESADAATYYCQTYYGSDSYVFGGGTEVVVK | 0.575 µg/mL
7 | P018.S.07.A.C04 (antibody, V domains shown) VH: QEQLVESGGGLVQPEGSLTLTCTASGFSFSSRFWICWVRQAPGKGLEWIACIYGGSTSATYDASWAKGRFTISKTSSTTVTLQMTSLTAADTATYFCTRLPTYDAYVFNLWGPGTLVTVSS VL: AIVMTQTPSSKSVPVGATATINCQASESVFSNNYLSWYQQKPGRSPKLLIYEASKLASGVPSRFSGSGSGTQFTLTISDVVSDDAATYYCGGYKSNNVDGYAFGGGTEVVVK | 0.801 µg/mL
8 | P018.S.10.A.E01 (antibody, V domains shown) VH: QEQLVESGGGLVQPEGSLTLTCTATGIDFSTNYRSCWVRQAPGKGLEWIACIDTDDSDSTYYASWAKGRFTISKTSSTTVTLQMTSLTAADTATYFCTRAYTTSDYAWSFYLWGPGTLVTVSS VL: DLVMTQTPASVEAAVGGTVTIKCQTSQSISKFLNWYQQTPGQPPKLLIYRASTLESGVPSRFEGSGSGTEFTLTISDLESADAATYYCQCTYGGTSGSVWAFGGGTEVVVK | 0.722 µg/mL
9 | P018.S.09.A.H03 (antibody, V domains shown) VH: QSLEESGGRLVTPDESLTLTCTVSGFSLSSNAMIWVRQAPGKGLEWIGIIDTGGSAYYASWAKGRFTISKTSTTVDLKITSPTTEDTATYFCARDRYTDSSGYNLWGQGTLVTVSS VL: DIVMTQTPASVEAAVGGTVTIKCQASQSIGASLAWYKQKPGQPPKLLIYSASWLASGVPSRFKGSGSGTEFTLTISDLASADAATYYCQSYYYRSSSGYGYAFGGGTEVVVK | 0.387 µg/mL
10 | P018.S.09.A.D05 (antibody, V domains shown) VH: QSLEESGGRLVTPGGSLTLTCTVSGIDLSSYAMDWVRQAPGKGLEWIGVIGAGGSTYYASWANGRFTISKTSTTVDLKISSPTTEDTATYFCARDIGGDYSSRYYFSLWGPGTLVTVSS VL: DIVMTQTPASVEAAVGGTVTIKCQASQSTSTALAWYQQKPGQRPKLLIYDSSKLASGVPSRFSGSGSGTEFTLTISGVQSDDAASYYCQQGYNINNVAFGGGTEVVVK | 0.561 µg/mL
11 | P018.S.04.A.F04 (antibody, V domains shown) VH: QSVEESGGRLVTPGTPLTLTCTVSGFSLSNYAMSWVRQAPGKGLEWIGIIYASGTTYYARWAKGRFTISRTSTTVDLKISSPTTEDTATYFCAREYDSYDYAYGSSIYAFDPWGPGTLVTVSS VL: AYDMTQTPSSVSAAVGGTVTIKCQASESIYSNLAWYQQKPGQRPKLLIYRASTLASGVSSRFKGSGSGTQFTLSISGVESADAATYYCQQGYSSSNVDNVFGGGTEVVVK | 1.44 µg/mL
12 | P018.S.10.A.A04 (antibody, V domains shown) VH: QSVEESGGRLVTPGTPLTLTCTVSGIDLSSNVMTWVRQAPGKGLEWIGYIYASATTYYATWAKGRFTISKTSTTVDLKMTSPTTEDTATYFCARERLASRGDYSDLWGQGTLVTVSS VL: AYDMTQTPASVEAAVGGTVTIKCQASESIGDLLAWYQQKPGQPPKLLIYDASDLASGVPSRFKGSGSGTEFTLTISGVESADAATYYCQQGYTTTSNVDNIFGGGTEVVVK | 0.335 µg/mL
13 | P018.S.04.A.A05 (antibody, V domains shown) VH: QSLEESGGRLVTPGTPLTLTCTASGFTISSYEMGWVRQAPGEGLEYIGWIASGGSTFYASWAKGRFTISRTSTTVDLTITDLRPSDTGTYFCARGYVEFKLWGPGTLVTVSS VL: DIVMTQTPASVSESVGGTVTIKCQASQSIGSYLSWYQQKPGQPPKVLIYRASTLESGVPSRFEGSGSGTQFTLTISDLESADAATYYCQGYHSTSGYVAFGGGTELVVK | 0.408 µg/mL
14 | P018.S.03.A.A02 (antibody, V domains shown) VH: QSVEESGGRLVTPGTPLTLTCTVSGFSLSSYDMTWVRQAPGEGLEWIGYINTDTTTYYASWAKGRFTISRTSTTVDLEITSPTTEDTATYFCARGNDPIYIDLWGQGTLVTVSS VL: AAVLTQTPSPVSAAVGGTVSISCQSSKSVINNNWLGWYQQKPGQPPKLLISYASTLASGVPSRFSGSGSGTQFTLTISDVQSDDAATYYCAGAYSPDSENAFGGGTEVVLK | 0.835 µg/mL

Further lines, results first:

Row | EC 50 (IL-8 release, cross-linked) | Binder
15 | 0.431 µg/mL | P018.S.10.A.H01 (antibody, V domains shown) VH: QEQLEESGGDLVKPGASLTLTCTASGFSFSSDYDMCWVSQAPGKGLEWIACIIGGSSDSTWYASWAKGRFTISKTSSTTVTLQVTGLTAADTATYFCARNVGFSYYDLWGPGTLVTVSS VL: AQVLTQTPSPVSAAVGGTVTINCQASQSLYNNKNLAWYQQKPGQPPKLLIYYASTLASGVSSRFKGSGSGTQFTLTISGVQSDDAATYYCQGEFSCSSGDCFAFGGGTEVVVK
16 | 0.43 µg/mL | P018.S.07.A.G02 (antibody, V domains shown) VH: QSVEESGGRLVTPGTPLTLTCTVSGFSLSSYDMSWVRQAPGKGLEWIGWITTDGGTDYASWAKGRFTVSKASTTVDLKITSPTTEDTATYFCARGYASFNLWGQGTLVTVSS VL: AQVLTQTPSSVSAAVGGTVTINCQSSQSVLSNSYLAWYQQKPGQPPKLLIYAASSLASGVPSRFKGSGSGTQFTLTISDLESDDAATYYCQGTDYSGGWYVAFGGGTEVVVK
17 | 0.856 µg/mL | P018.S.01.A.B04 (antibody, V domains shown) VH: QEQLEESGGRLVTPGGTLTLTCTASGFSLSSYDMSWVRQAPGKGLEWIGYIWSDGNTDYASWAAGRFTASRASTTVDLKMTSLTTEDTATYFCARGYTGFFLWGPGTLVTVSS VL: DVVMTQTPSSVSAAVGGTVTIKCQASQSIGSSYLSWYQQKPGQPPKLLIYKTSTLASGVPSRFKGSGSGTEFTLTISDLESDDAATYYCQCTYYGGSWRVAFGGGTEVVVK
18 | 0.526 µg/mL | P018.S.02.A.G03 (antibody, V domains shown) VH: QSVEESGGRLVTPGTPLTLTCTVSGFSLSSYVMSWVRQAPGKGLEWIGYIDYGGTAYYASWAKGRFTISKTSTTVELKITSPTIEDTATYFCARGGYGGYILVTGLWGPGTLVTVSS VL: DIVMTQTPASVSEPVGGTVTIKCQASQTIISYLSWYQQKPGQPPKLLIYGASTLASGVPSRFKGSGSVTEYTLTISDLESADAATYYCQTYYGGGPFGNGFGGGTEVVVK
19 | 1.11 µg/mL | P018.S.01.A.H02 (antibody, V domains shown) VH: QSVEESGGRLVTPGTPLTLTCTASGFSLSSYHMQWVRQAPGKGLEWIGIIYAGSGNTWYASWAKGRFTISKTSTTVDLKITSPTTEDTAAYFCARQPGGDASDTQLDLWGQGTLVTVSS VL: AAVLTQTASPVSAAVGGTVTINCQSSQSVFDHNQLSWFQHKPGQSPKLLIYRASTLASGVPSRFKGSGSGTQFTLTISDVQSDDAATYYCLGGYSSSSDTVFGGGTEVVVK
20 | 0.329 µg/mL | P018.S.09.A.H06 (antibody, V domains shown) VH: QSVEESGGRLVKPDETLTLTCTVSGIDLTSYAMGWVRQAPGEGLEWIGAIGSGGGIYYASWARGRFTISKTSSTTVDLKIPSPTTEDTATYFCARVPQWAYLDLWGQGTLVTVSS VL: AQVLTQTPASVSAAVGGTVTISCQSSESVYKNNYLSWYQQKPGQPPKLLIYDASTLASGVPSRFSGSGSGTQFTLTISGVQSEDAATYYCQGYYGGGIFTFGGGTEVVVK
21 | 0.234 µg/mL | P018.S.10.A.E04 (antibody, V domains shown) VH: QSLEESGGDLVKPGASLTLTCTASGFSFSSSYWICWVRQAPGKGLEWVACISAPGSGSTFDASWAKGRFTISKTSSTTVTLQMTSLTAADTATYFCARFYAGGSGDYFDLWGPGTLVTVSS VL: QIVMTQTPSSTSEPVGGTVSIKCQASQNIGSYLAWYQQKPGQPPKVLIYTTSDLASGVPSRFKGSGSGTQFTLTISDLESDDAATYYCLGVYGYSSDDVAFGGGTEVVVK
